The values below come from publication PMC10243133 (Proceedings of the National Academy of Sciences of the …, 2023).

The target in assay [1] is GLP-1R endogenously expressed in the rat pancreatic INS-1E β-cell line (rat (endogenous in INS-1E)) (UniProt P32301).
For the next assay, the system named is mutant GLP-1R. As to conditions: cited from earlier work.

GLP-1R endogenously expressed in the rat pancreatic INS-1E β-cell line (rat (endogenous in INS-1E)), sequence (P32301 22-463): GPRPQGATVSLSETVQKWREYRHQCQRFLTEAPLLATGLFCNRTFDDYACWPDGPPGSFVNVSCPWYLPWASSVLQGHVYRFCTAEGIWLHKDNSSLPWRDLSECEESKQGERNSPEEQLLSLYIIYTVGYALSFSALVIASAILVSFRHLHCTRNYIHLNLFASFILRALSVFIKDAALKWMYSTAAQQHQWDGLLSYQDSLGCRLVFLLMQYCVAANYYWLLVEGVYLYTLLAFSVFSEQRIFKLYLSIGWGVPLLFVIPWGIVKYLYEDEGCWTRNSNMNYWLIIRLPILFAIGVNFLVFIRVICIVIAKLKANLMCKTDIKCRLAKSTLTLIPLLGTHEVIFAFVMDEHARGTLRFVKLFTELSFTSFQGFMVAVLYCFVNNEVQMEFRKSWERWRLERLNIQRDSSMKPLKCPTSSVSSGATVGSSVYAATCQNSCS

As for GLP-1(9-36) (peptide), in assay [1], the EC50 of peptide activity in rat INS-1E cells with 3 μM compound 3-20 (Emax 63%) is 115 nM and the EC50 of peptide activity in rat INS-1E cells with 3 μM compound 3-24 (Emax 60%) was 100 nM.

Consider `COc1ccc(Cl)c([C@@H](C)n2cnc3ccc(-c4ccccc4[C@H]4CCCCN4)cc32)c1Cl` [LSN3160440], for which, in the assay on mutant GLP-1R, the “allosteric activity in GLP-1R binding site mutants” value was “only abolished in a triple mutant”.
